The source of these data is PMC6901390, “Cell-Free Enzymatic Conversion of Spent Coffee Grounds Into the Platform Chemical Lactic Acid” (Frontiers in Bioengineering and Biotechnology, 2019).

Test in all cases: purified protein
Substrate in series [1]: O=C[C@H](O)CO
The following applies: pyruvate and D-glyceraldehyde varied together (0.5-40 mM), one combined Km, 20 mM sodium phosphate pH 7.0, 50 °C.

Substrate in series [2]: CC(=O)C(=O)O
It counts as biochemical, Thermoplasma acidophilum. The following applies: pyruvate and D-glyceraldehyde varied together (0.5-40 mM), one combined Km, 20 mM sodium phosphate pH 7.0, 50 °C.

Substrate in series [3]: CC(=O)C(=O)O
In kind it is biochemical, Geobacillus stearothermophilus. The settings on record: 0.2 mM NADH, 20 mM sodium phosphate pH 7.0, 50 °C, 0-50 mM pyruvate.

B1: KDGA (Thermoplasma acidophilum DSM 1728) (protein)
chain: MYKGIVTPMITPMGQNGEIDYRATEILIDNLADFGVDGLFPMGSTGLFPMFSTDEKKKFLGFVRDHSKKIEVYAGVGSSSTQESVELSKYTEDIGIKVRVLMPTYYIKPDEDWMYRHFSTVISAASNDLFIYNIPQLSGSWISESLIEKLTREFSNVKGIKDSSGDMRFFSRIIRHKNEKFDIFQGQDDLLFLSLSIGASGGVCGLSNISPYITNLYHEFSAGNLEKARKIQIDEVNPLMYAINEATFPAGYYYAFYKMNGIKGGYRAPMVEPTTDQKKKIDQELTKIPKKQ
notes: His-tagged, pProEX HTc, expressed in E. coli BL21-CodonPlus (DE3)-RIL, Ni-NTA purified
As to B1, in the series “purified protein [1]”, the Km is 8.07 ± 1.29 mM, the Vmax stood at 17 µmol/min/mg, the kcat was determined as 10.5 s⁻¹ and the kcat/Km came to 1300 M⁻¹ s⁻¹. In “purified protein [2]”, the Km was 8.07 ± 1.29 mM, the Vmax is 17 µmol/min/mg, the kcat stood at 10.5 s⁻¹ and the kcat/Km turned out to be 1300 M⁻¹ s⁻¹.

B2: LDH (Geobacillus stearothermophilus) (protein)
chain: MKNNGGARVVVIGAGFVGASYVFALMNQGIADEIVLIDANESKAIGDAMDFNHGKVFAPKPVDIWHGDYDDCRDADLVVICAGANQKPGETRLDLVDKNIAIFRSIVESVMASGFQGLFLVATNPVDILTYATWKFSGLPHERVIGSGTILDTARFRFLLGEYFSVAPQNVHAYIIGEHGDTELPVWSQAYIGVMPIRKLVESKGEEAQKDLERIFVNVRDAAYQIIEKKGATYYGIAMGLARVTRAILHNENAILTVSAYLDGLYGERDVYIGVPAVINRNGIREVIEIELNDDEKNRFHHSAATLKSVLARAFTR
notes: synthetic gene, His-tagged, pETDuet-1, expressed in E. coli BL21 (DE3), Ni-NTA purified
As to B2, in “purified protein [3]”, the Km turned out to be 10.95 ± 1.67 mM, the maximum rate (Vmax) was 194 µmol/min/mg, the kcat stood at 117 s⁻¹ and the kcat/Km was 10600 M⁻¹ s⁻¹.
